Results from publication PMC9784774.

Columns and labels:
Assay in all cases: SPR; Biacore X100, CM5 chip, RT, 1:1 binding model; methods: antibody (4 μg/mL) captured by anti-human Fc IgG to about 100 RU, pentamer or trimer in five 2-fold dilutions injected at 30 μL/min, 90 s association, 600 s dissociation (the legend of Fig. 5 tells the reverse orientation)
[1] = molecular target: pentamer mutant UL131A_E23A (human cytomegalovirus | human cytomegalovirus strain VR1814)
[2] = molecular target: pentamer mutant UL131A_K27A (human cytomegalovirus | human cytomegalovirus strain VR1814)
[3] = molecular target: pentamer mutant UL128_T94A (human cytomegalovirus | human cytomegalovirus strain VR1814)
[4] = molecular target: pentamer mutant UL128_K47A (human cytomegalovirus | human cytomegalovirus strain VR1814)

B1: MAb 9I6 (antibody, V domains shown)
VH: EVQLVQSGAEVKKPGESLKISCRESGDTFPAYWIAWVRQMPGKGLEWMGIIYPIDSETTYSPSFQGQVTISADKSINTAYLQWSSLKASDSAIYYCARGTSTGLREAFHIWGQGTMVTVSS
VL: DVVMTQSPLSLAVTLGQPAYISCRSSQSLGYSDGNTYLNWFQQRPGQSPRRLIYEVSNRDSGVPDRFSGSGSGTDFTLKISRVEAEDVGTYYCMQGTHWPPMCSFGQGTKLEIK
[1]
  Kd: 2.83 nM
  koff: 0.000115 s⁻¹
  kon: 40700 M⁻¹ s⁻¹
[2]
  Kd: 1.91 nM
  koff: 0.000181 s⁻¹
  kon: 94700 M⁻¹ s⁻¹
[3]
  Kd: 0.57 nM
  koff: 3e-05 s⁻¹
  kon: 53100 M⁻¹ s⁻¹
[4]
  Kd: 1.5 nM
  koff: 7.38e-05 s⁻¹
  kon: 49200 M⁻¹ s⁻¹
